In the Immune Epitope Database (IEDB) one finds Kd and IC50 data, which are given here for four sequences.

Bounds are passed on as bounds.

One experiment addresses HLA-A*01:01. Kind of experiment: IEDB peptide-MHC binding, purified MHC/direct/fluorescence; filed as Kd, often an IC50 or EC50 that approximates it; ≥ and ≤ were set here for values at or beyond the usual limits of such assays.
Experiment [1] concerns the target HLA-A*02:01. Described as above. The note with it: source organism: Vibrio cholerae.
In a further experiment the target is HLA-A*03:01. The experiment is described as above. Conditions: source organism: Vibrio cholerae.
For experiment [2], the target named is HLA-A*11:01. Described as above. Conditions: source organism: Vibrio cholerae.
The target of a further experiment is HLA-A*26:01. Described as above.
Another experiment concerns the target HLA-A*26:02. The experiment is described as above. The note with it: source organism: Vibrio cholerae V52.
The target in another experiment is HLA-A*31:01. Described as above.
Experiment [3] has as its target HLA-A*68:02. Described as above. Conditions: source organism: Vibrio cholerae.
Experiment [4] has as its target HLA-B*07:02. The description is as above. The note with it: source organism: Vibrio cholerae.
A further experiment concerns the target HLA-B*08:01. Described as above. The note with it: source organism: Vibrio cholerae V52.
For the next experiment, the target named is HLA-B*08:02. Described as above. Conditions: source organism: Vibrio cholerae V52.
For experiment [5], the target named is HLA-B*15:01. The description is as above. Conditions: source organism: Vibrio cholerae.
The target in a further experiment is HLA-B*18:01. The experiment is described as above.
The target in the next experiment is HLA-B*27:05. Described as above.
The target in another experiment is HLA-B*40:01. The description is as above. Conditions: source organism: Vibrio cholerae.
For a further experiment, the target named is HLA-B*46:01. The description is as above. The note with it: source organism: Vibrio cholerae.
A further experiment concerns the target HLA-B*48:01. The experiment is described as above. The note with it: source organism: Vibrio cholerae.
The target of the next experiment is HLA-B*57:01. The description is as above.
Another experiment deals with HLA-B*58:01. The experiment is described as above.
Another experiment addresses HLA-A*26:03. Briefly: IEDB peptide-MHC binding, purified MHC/competitive/fluorescence; filed as Kd, often an IC50 or EC50 that approximates it; ≥ and ≤ were set here for values at or beyond the usual limits of such assays. Conditions: source organism: Vibrio cholerae 2740-80.
The next experiment has as its target HLA-A*30:01. Described as above.
Another experiment has as its target HLA-B*15:17. The experiment is described as above. The note with it: source organism: Vibrio cholerae 2740-80.
Another experiment deals with HLA-B*40:02. Kind of experiment: IEDB peptide-MHC binding, cellular MHC/competitive/fluorescence; ≥ and ≤ were set here for values at or beyond the usual limits of such assays. Conditions: source organism: Homo sapiens.
For another experiment, the target named is HLA-B*15:09. Briefly: IEDB peptide-MHC binding, purified MHC/direct/fluorescence; filed as Kd, often an IC50 or EC50 that approximates it; ≥ and ≤ were set here for values at or beyond the usual limits of such assays. The note with it: source organism: Yersinia pestis CA88-4125.
A further experiment concerns the target HLA-B*73:01. Described as above. The note with it: source organism: Yersinia pestis CA88-4125.
For experiment [6], the target named is HLA-A*02:01. Kind of experiment: IEDB peptide-MHC binding, purified MHC/competitive/fluorescence; filed as Kd, often an IC50 or EC50 that approximates it; ≥ and ≤ were set here for values at or beyond the usual limits of such assays. Conditions: source organism: Yersinia pestis KIM10+.
In a further experiment the target is HLA-A*02:03. The experiment is described as above. The note with it: source organism: Yersinia pestis KIM10+.
Another experiment concerns the target HLA-A*02:06. Described as above. The note with it: source organism: Yersinia pestis KIM10+.
Experiment [7] addresses HLA-A*11:01. Described as above. The note with it: source organism: Yersinia pestis KIM10+.
Experiment [8] concerns the target HLA-A*68:02. Described as above. Conditions: source organism: Yersinia pestis KIM10+.
In experiment [9] the target is HLA-B*07:02. The experiment is described as above. The note with it: source organism: Yersinia pestis KIM10+.
Experiment [10] has as its target HLA-B*15:01. The description is as above. Conditions: source organism: Yersinia pestis KIM10+.
The target of another experiment is HLA-B*15:42. Described as above. The note with it: source organism: Yersinia pestis KIM10+.
For the next experiment, the target named is HLA-B*27:20. Described as above. The note with it: source organism: Yersinia pestis KIM10+.
In another experiment the target is HLA-B*39:01. The experiment is described as above. Conditions: source organism: Yersinia pestis KIM10+.
A further experiment deals with HLA-B*45:06. The description is as above. The note with it: source organism: Yersinia pestis KIM10+.
A further experiment has as its target HLA-B*83:01. The description is as above. The note with it: source organism: Yersinia pestis KIM10+.
In a further experiment the target is HLA-C*06:02. The experiment is described as above. The note with it: source organism: Yersinia pestis KIM10+.
Setting [11] is: source organism: Vibrio cholerae.
[12] abbreviates: source organism: Yersinia pestis.

Regarding AADFPGIAR, the Kd (commonly the constant that tells how readily two partners part at equilibrium) with HLA-A*01:01 (setting [11]) is not below 20 µM; in the experiment with HLA-A*02:01 [1], not below 20 µM; in the experiment with HLA-A*03:01, 1 µM; with HLA-A*11:01 [2], 0.164 µM; with HLA-A*26:01 (source organism: Vibrio cholerae V52), not below 20 µM; in the experiment with HLA-A*26:02, not below 20 µM. Further, the Kd was 6.3 µM with HLA-A*31:01 (setting [11]); not below 20 µM with HLA-A*68:02 [3]; not below 20 µM with HLA-B*07:02 [4]; not below 20 µM with HLA-B*08:01; not below 20 µM with HLA-B*08:02; not below 20 µM with HLA-B*15:01 [5]. Further, the Kd with HLA-B*18:01 (setting [11]), with HLA-B*27:05 (setting [11]), in the experiment with HLA-B*40:01, with HLA-B*46:01, with HLA-B*48:01 and in the experiment with HLA-B*57:01 (setting [11]) was not below 20 µM in each case. Moreover, the Kd in the experiment with HLA-B*58:01 (setting [11]) was not below 20 µM; in the experiment with HLA-A*26:03 it was not below 20 µM; with HLA-A*30:01 (source organism: Vibrio cholerae 2740-80), 2.11 µM; in the experiment with HLA-B*15:17, not below 20 µM.
In the case of REASPSRLS, the IC50 – broadly, the concentration that inhibits the measured activity by half – with HLA-B*40:02 was 1.9 µM.
On the same count and under the same terms, in the case of REFSKEPEL it was 0.8 µM.
On to SRWAISHWL, for which the Kd with HLA-A*01:01 (setting [12]) is not below 20 µM; in the experiment with HLA-A*26:01 (source organism: Yersinia pestis CA88-4125) it was not below 20 µM; with HLA-A*31:01 (setting [12]), not below 20 µM; with HLA-B*15:09, not below 20 µM; with HLA-B*18:01 (setting [12]), not below 20 µM; with HLA-B*27:05 (setting [12]), 0.0203 µM. The Kd with HLA-B*57:01 (setting [12]) was not below 20 µM; with HLA-B*58:01 (setting [12]) it was not below 20 µM; in the experiment with HLA-B*73:01, 0.167 µM; in the experiment with HLA-A*02:01 [6] it was 0.0762 µM; with HLA-A*02:03, 0.205 µM; with HLA-A*02:06 it was 0.0086 µM. For the same sequence, the Kd with HLA-A*11:01 [7] was not below 20 µM; in the experiment with HLA-A*30:01 (source organism: Yersinia pestis KIM10+), 2.69 µM; with HLA-A*68:02 [8] it was not below 20 µM; with HLA-B*07:02 [9], not below 20 µM; in the experiment with HLA-B*15:01 [10], 1.84 µM; with HLA-B*15:42, not below 5 µM. Also, the Kd in the experiment with HLA-B*27:20 is 0.0048 µM; with HLA-B*39:01, 0.0363 µM; with HLA-B*45:06 it was not below 5 µM; with HLA-B*83:01 it was not below 5 µM; in the experiment with HLA-C*06:02, 0.0822 µM.
